The target of the experiment is GST fusion protein of the cytoplasmic region of DSC2a A897fsX900 (aa 716–899) (human) (UniProt Q02487). The experiment in a line: pull-down.
Chain of UniProt Q02487 (Q02487 716-899): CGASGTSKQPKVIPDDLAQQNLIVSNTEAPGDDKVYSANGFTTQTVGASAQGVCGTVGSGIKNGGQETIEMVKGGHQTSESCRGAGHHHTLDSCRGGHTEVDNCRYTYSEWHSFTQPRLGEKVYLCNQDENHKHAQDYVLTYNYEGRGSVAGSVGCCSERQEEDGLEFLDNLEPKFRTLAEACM

B1: plakoglobin (PG), endogenous in adult rat heart lysate (natural protein)
chain: MEVMNLIEQPIKVTEWQQTYTYDSGIHSGVNTCVPSVSSKGLLDEDDTCGRQYTLKKTTTYTQGVPQSQGDLEYQMSTTARAKRVREAMCPGVSGEDSSLLLATQVEGQTTNLQRLAEPSQLLKSAIVHLINYQDDAELATRALPELTKLLNDEDPVVVTKAAMIVNQLSKKEASRRALMGSPQLVAAVVRTMQNTSDLDTARCTTSILHNLSHHREGLLAIFKSGGIPALVRMLSSPVESVLFYAITTLHNLLLYQEGAKMAVRLADGLQKMVPLLNKNNPKFLAITTDCLQLLAYGNQESKLIILANGGPQGLVQIMRNYSYEKLLWTTSRVLKVLSVCPSNKPAIVEAGGMQALGKHLTSNSPRLVQNCLWTLRNLSDVATKQEGLENVLKILVNQLSVDDVNVLTCATGTLSNLTCNNSKNKTLVTQNSGVEALIHAILRAGDKDDITEPAVCALRHLTSRHPEAEMAQNSVRLNYGIPAIVKLLNQPNQWPLVKATIGLIRNLALCPANHAPLQEAAVIPRLVQLLVKAHQDAQRHVAAGTQQPYTDGVRMEEIVEGCTGALHILARDPMNRMEIFRLNTIPLFVQLLYSSVENIQRVAAGVLCELAQDKEAADAIDAEGASAPLMELLHSRNEGTATYAAAVLFRISEDKNPDYRKRVSVELTNSLFKHDPAAWEAAQSMIPINEPYADDMDATYRPMYSSDVPLDPLDMHMDMDGDYPMDTYSDGLRPPYPAADHMLA
Molecule B1 gave a reduction of binding against DSC2a WT (densitometry) of 50%.
